In test [1] the target is T1, PBP1b (E. coli, UniProt P02919 1-844, fluorescent ampicillin label added after elution).
T1 construct: PBP1b, E. coli, class A PBP, bifunctional glycosyltransferase/transpeptidase; Untagged as prey of HisFtsBLQ, HisFtsBL, HisFtsQ and HisFtsW; also called untagged PBP1b; source: E. coli C43 (DE3) or Lemo21 (DE3), coexpressed from Duet vectors, in detergent extract of membranes
T1 sequence (looked up): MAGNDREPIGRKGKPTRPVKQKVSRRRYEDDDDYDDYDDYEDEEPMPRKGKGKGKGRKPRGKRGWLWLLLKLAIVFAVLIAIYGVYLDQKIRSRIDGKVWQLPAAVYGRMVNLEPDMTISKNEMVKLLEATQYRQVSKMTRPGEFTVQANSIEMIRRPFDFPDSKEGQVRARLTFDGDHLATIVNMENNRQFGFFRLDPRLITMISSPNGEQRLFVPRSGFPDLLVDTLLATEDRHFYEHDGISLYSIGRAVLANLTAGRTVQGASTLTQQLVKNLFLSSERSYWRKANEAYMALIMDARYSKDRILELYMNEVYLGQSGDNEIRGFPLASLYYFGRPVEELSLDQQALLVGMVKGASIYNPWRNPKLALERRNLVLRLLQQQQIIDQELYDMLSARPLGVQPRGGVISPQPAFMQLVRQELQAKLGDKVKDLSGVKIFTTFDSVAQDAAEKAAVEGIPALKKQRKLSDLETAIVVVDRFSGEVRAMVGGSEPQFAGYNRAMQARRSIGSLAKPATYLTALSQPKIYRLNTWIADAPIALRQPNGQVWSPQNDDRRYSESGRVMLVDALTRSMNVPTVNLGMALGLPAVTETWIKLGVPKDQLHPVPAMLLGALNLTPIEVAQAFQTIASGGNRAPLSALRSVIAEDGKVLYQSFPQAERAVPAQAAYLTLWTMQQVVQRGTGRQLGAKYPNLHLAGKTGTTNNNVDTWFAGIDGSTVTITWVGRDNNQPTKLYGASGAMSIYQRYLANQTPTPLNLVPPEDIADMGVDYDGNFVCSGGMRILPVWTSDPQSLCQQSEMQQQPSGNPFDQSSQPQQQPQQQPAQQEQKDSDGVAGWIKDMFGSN

Test [2] has as its target T1, PBP1b. The test can be described thus: pull-down + SEC; PBP1b copurified with FtsN or FtsN W83L on a nickel column followed by gel filtration; SDS-PAGE, Coomassie, band amounts by Image Quant TL.

Molecule “FtsN^W83L (from UniProt P29131 1-319) (natural protein)” gave a fold decrease in stimulation of the GTase activity of PBP1b (continuous fluorescence assay), initial velocity against wild-type FtsN in test [1] of 2 fold. For the same molecule, in test [2], the PBP1b/FtsN ratio in the copurified complex after gel filtration (parts PBP1b of 100 (PBP1b/FtsN 20/80)) stood at 20.

B1: FtsN (natural protein, E. coli, UniProt P29131 1-319, looked up)
chain: MAQRDYVRRSQPAPSRRKKSTSRKKQRNLPAVSPAMVAIAAAVLVTFIGGLYFITHHKKEESETLQSQKVTGNGLPPKPEERWRYIKELESRQPGVRAPTEPSAGGEVKTPEQLTPEQRQLLEQMQADMRQQPTQLVEVPWNEQTPEQRQQTLQRQRQAQQLAEQQRLAQQSRTTEQSWQQQTRTSQAAPVQAQPRQSKPASSQQPYQDLLQTPAHTTAQSKPQQAAPVARAADAPKPTAEKKDERRWMVQCGSFRGAEQAETVRAQLAFEGFDSKITTNNGWNRVVIGPVKGKENADSTLNRLKMAGHTNCIRLAAGG
notes: FtsN, E. coli, bitopic membrane protein; also called FtsN^WT; FtsNWT; source: E. coli C43 (DE3) or Lemo21 (DE3), coexpressed from Duet vectors, in detergent extract of membranes; also purified
On to B1, for which, in test [2] (partners not purified), the “PBP1b/FtsN ratio in the copurified complex after gel filtration” value was ~40 parts PBP1b of 100 (PBP1b/FtsN 40/60).

The values above are taken from publication PMC6325244, “Regulation of the Peptidoglycan Polymerase Activity of PBP1b by Antagonist Actions of the Core Divisome Proteins FtsBLQ and FtsN” (mBio, 2019).
